Assay results reported in the supplement of paper PMC11246515.
± gives the standard deviation of the averaged measurements.

Assay: total protein half-life in vivo (active degradation + dilution); higher = more stable protein
[1] = E. coli NCM3722 delta-clpP delta-lon delta-hslV, growth: N-lim chemostat, doubling time 6 h
[2] = E. coli NCM3722 delta-clpP, growth: N-lim chemostat, doubling time 6 h
[3] = E. coli NCM3722 delta-hslV, growth: N-lim chemostat, doubling time 6 h
[4] = E. coli NCM3722 delta-lon, growth: N-lim chemostat, doubling time 6 h
[5] = E. coli NCM3722 delta-smpB, growth: N-lim chemostat, doubling time 6 h
[6] = wild type E. coli NCM3722, growth: C-lim chemostat, doubling time 3 h
[7] = wild type E. coli NCM3722, growth: C-lim chemostat, doubling time 6 h
[8] = wild type E. coli NCM3722, growth: C-lim chemostat, doubling time 12 h
[9] = wild type E. coli NCM3722, growth: N-lim chemostat, doubling time 6 h
[10] = wild type E. coli NCM3722, growth: N-lim chemostat, doubling time 12 h
[11] = wild type E. coli NCM3722, growth: P-lim chemostat, doubling time 6 h
[12] = wild type E. coli NCM3722, growth: P-lim chemostat, doubling time 12 h

| Sequence | total protein half-life in vivo [1] [h] | total protein half-life in vivo [2] [h] | total protein half-life in vivo [3] [h] | total protein half-life in vivo [4] [h] | total protein half-life in vivo [5] [h] | total protein half-life in vivo [6] [h] | total protein half-life in vivo [7] [h] | total protein half-life in vivo [8] [h] | total protein half-life in vivo [9] [h] | total protein half-life in vivo [10] [h] | total protein half-life in vivo [11] [h] | total protein half-life in vivo [12] [h] |
| --- | --- | --- | --- | --- | --- | --- | --- | --- | --- | --- | --- | --- |
| MKLDEIARLAGVSRTTASYVINGKAKQYRVSDKTVEKVMAVVREHNYHPNAVAAGLRAGRTRSIGLVIPDLENTSYTRIANYLERQARQRGYQLLIACSEDQPDNEMRCIEHLLQRQVDAIIVSTSLPPEHPFYQRWANDPFPIVALDRALDREHFTSVVGADQDDAEMLAEELRKFPAETVLYLGALPELSVSFLREQGFRTAWKDDPREVHFLYANSYEREAAAQLFEKWLETHPMPQALFTTSFALLQGVMDVTLRRDGKLPSDLAIATFGDNELLDFLQCPVLAVAQRHRDVAERVLEIVLASLDEPRKPKPGLTRIKRNLYRRGVLSRS [P0ACP1] | 6.0472 ± 0.0054 | 5.37 ± 0.29 | 5.38 ± 0.37 | 5.87 ± 0.21 | 5.16 ± 0.56 | 3.17 ± 0.32 | 5.63 ± 0.057 | 9.99 ± 0.83 | 5.65 ± 0.2 | 10.7 ± 0.77 | 5.6 ± 0.084 | 10.65 ± 0.013 |
| MKLISNDLRDGDKLPHRHVFNGMGYDGDNISPHLAWDDVPAGTKSFVVTCYDPDAPTGSGWWHWVVVNLPADTRVLPQGFGSGLVAMPDGVLQTRTDFGKTGYDGAAPPKGETHRYIFTVHALDIERIDVDEGASGAMVGFNVHFHSLASASITAMFS | – | 5.59 ± 0.26 | > 8 | 5.79 ± 0.095 | 5.96 ± 0.2 | – | 6.07 ± 0.44 | 13.4 ± 2 | 5.42 ± 0.21 | 11.4 ± 1.1 | 6.04 ± 0.39 | 10.9 ± 2.7 |
| MKLKNTLLASALLSAMAFSVNAATELTPEQAAAVKPFDRVVVTGRFNAIGEAVKAVSRRADKEGAASFYVVDTSDFGNSGNWRVVADLYKADAEKAEETSNRVINGVVELPKDQAVLIEPFDTVTVQGFYRSQPEVNDAITKAAKAKGAYSFYIVRQIDANQGGNQRITAFIYKKDAKKRIVQSPDVIPADSEAGRAALAAGGEAAKKVEIPGVATTASPSSEVGRFFETQSSKGGRYTVTLPDGTKVEELNKATAAMMVPFDSIKFSGNYGNMTEVSYQVAKRAAKKGAKYYHITRQWQERGNNLTVSADLYK | 5.73 ± 0.21 | 5.99 ± 0.45 | 5.8 ± 0.2 | 5.46 ± 0.12 | 5.116 ± 0.0047 | 3.13 ± 0.059 | 5.73 ± 0.11 | 10.5 ± 0.55 | 5.47 ± 0.23 | 9.68 ± 0.69 | 5.61 ± 0.079 | 11.1 ± 0.13 |
| MKLNIRAQTAQNQHNNSPIVLVHGLFGSLDNLGVLARDLVNDHNIIQVDMRNHGLSPRDPVMNYPAMAQDLVDTLDAQQIDKATFIGHSMGGKAVMALTALASDRIDKLVAIDIAPVDYHVRRHDEIFAAINAVSESDAQTRQQAAAIMRQHLNEEGVIQFLLKSFVDGEWRFNVPVLWDQYPHIVGWEKIPAWDHPALFIPGGNSPYVSEQYRDDLLAQFPQARAHVIAGAGHWVHAEKPDAVLRAIRRYLND | 5.19 ± 0.27 | 5.13 ± 0.26 | 5.14 ± 0.17 | 5.82 ± 1.4 | 5.07 ± 0.61 | 3.04 ± 0.12 | 5.74 ± 0.4 | 9.16 ± 2.6 | 5.02 ± 0.39 | 10 ± 1.1 | 6.53 ± 0.95 | 12.4 ± 0.16 |
| MKLQNSFRDYTAESALFVRRALVAFLGILLLTGVLIANLYNLQIVRFTDYQTRSNENRIKLVPIAPSRGIIYDRNGIPLALNRTIYQIEMMPEKVDNVQQTLDALRSVVDLTDDDIAAFRKERARSHRFTSIPVKTNLTEVQVARFAVNQYRFPGVEVKGYKRRYYPYGSALTHVIGYVSKINDKDVERLNNDGKLANYAATHDIGKLGIERYYEDVLHGQTGYEEVEVNNRGRVIRQLKEVPPQAGHDIYLTLDLKLQQYIETLLAGSRAAVVVTDPRTGGVLALVSTPSYDPNLFVDGISSKDYSALLNDPNTPLVNRATQGVYPPASTVKPYVAVSALSAGVITRNTTLFDPGWWQLPGSEKRYRDWKKWGHGRLNVTRSLEESADTFFYQVAYDMGIDRLSEWMGKFGYGHYTGIDLAEERSGNMPTREWKQKRFKKPWYQGDTIPVGIGQGYWTATPIQMSKALMILINDGIVKVPHLLMSTAEDGKQVPWVQPHEPPVGDIHSGYWELAKDGMYGVANRPNGTAHKYFASAPYKIAAKSGTAQVFGLKANETYNAHKIAERLRDHKLMTAFAPYNNPQVAVAMILENGGAGPAVGTLMRQILDHIMLGDNNTDLPAENPAVAAAEDH [P0AD65] | 7.59 ± 0.27 | 6.61 ± 0.79 | 6.75 ± 0.56 | 6.37 ± 0.078 | 5.71 ± 0.077 | 3.03 ± 0.031 | 6.92 ± 1.1 | 11.8 ± 0.77 | 6.5 ± 0.79 | 13.4 ± 0.88 | 6.24 ± 0.3 | 13.7 ± 1 |
| MKLRDSLAENKSIRLQAEAETWQEAVKIGVDLLVAADVVEPRYYQAILDGVEQFGPYFVIAPGLAMPHGRPEEGVKKTGFSLVTLKKPLEFNHDDNDPVDILITMAAVDANTHQEVGIMQIVNLFEDEENFDRLRACRTEQEVLDLIDRTNAAA | – | – | – | – | 3.07 | 3.32 ± 0.71 | 3.97 ± 0.22 | 7.31 | 3.02 | – | 4.94 ± 0.59 | 7.637 ± 0.049 |
